Publication PMC6171931

Biological target: HCV NS5B (RNA-dependent RNA polymerase), JFH1 (Hepatitis C virus (JFH1))
Test: proximity ligation

## ATG5-12 conjugate (from UniProt Q9H1Y0 1-275; O94817 1-140) (complex)
  PLA interaction signals per infected cell (signals per infected cell): 380
